B1: OmpT protease variant OmpT D97V (protein)
chain: STETLSFTPDNINADISLGTLSGKTKERVYLAEEGGRKVSQLDWKFNNAAIIKGAINWDLMPQISIGAAGWTTLGSRGGNMVDQDWMDSSNPGTWTVESRHPDTQLNYANEFDLNIKGWLLNEPNYRLGLMAGYQESRYSFTARGGSYIYSSEEGFRDDIGSFPNGERAIGYKQRFKMPYIGLTGSYRYEDFELGGTFKYSGWVESSDNDEHYDPGKRITYRSKVKDQNYYSVAVNAGYYVTPNAKVYVEGAWNRVTNKKGNTSLYDHNNNTSDYSKNGAGIENYNFITTAGLKYTF
B2: OmpT protease variant OmpT D97F (protein)
chain: STETLSFTPDNINADISLGTLSGKTKERVYLAEEGGRKVSQLDWKFNNAAIIKGAINWDLMPQISIGAAGWTTLGSRGGNMVDQDWMDSSNPGTWTFESRHPDTQLNYANEFDLNIKGWLLNEPNYRLGLMAGYQESRYSFTARGGSYIYSSEEGFRDDIGSFPNGERAIGYKQRFKMPYIGLTGSYRYEDFELGGTFKYSGWVESSDNDEHYDPGKRITYRSKVKDQNYYSVAVNAGYYVTPNAKVYVEGAWNRVTNKKGNTSLYDHNNNTSDYSKNGAGIENYNFITTAGLKYTF
B3: OmpT protease variant OmpT D97Y (protein)
chain: STETLSFTPDNINADISLGTLSGKTKERVYLAEEGGRKVSQLDWKFNNAAIIKGAINWDLMPQISIGAAGWTTLGSRGGNMVDQDWMDSSNPGTWTYESRHPDTQLNYANEFDLNIKGWLLNEPNYRLGLMAGYQESRYSFTARGGSYIYSSEEGFRDDIGSFPNGERAIGYKQRFKMPYIGLTGSYRYEDFELGGTFKYSGWVESSDNDEHYDPGKRITYRSKVKDQNYYSVAVNAGYYVTPNAKVYVEGAWNRVTNKKGNTSLYDHNNNTSDYSKNGAGIENYNFITTAGLKYTF
B4: OmpT protease variant OmpT D97L (protein)
chain: STETLSFTPDNINADISLGTLSGKTKERVYLAEEGGRKVSQLDWKFNNAAIIKGAINWDLMPQISIGAAGWTTLGSRGGNMVDQDWMDSSNPGTWTLESRHPDTQLNYANEFDLNIKGWLLNEPNYRLGLMAGYQESRYSFTARGGSYIYSSEEGFRDDIGSFPNGERAIGYKQRFKMPYIGLTGSYRYEDFELGGTFKYSGWVESSDNDEHYDPGKRITYRSKVKDQNYYSVAVNAGYYVTPNAKVYVEGAWNRVTNKKGNTSLYDHNNNTSDYSKNGAGIENYNFITTAGLKYTF
B5: OmpT protease variant OmpT D97T (protein)
chain: STETLSFTPDNINADISLGTLSGKTKERVYLAEEGGRKVSQLDWKFNNAAIIKGAINWDLMPQISIGAAGWTTLGSRGGNMVDQDWMDSSNPGTWTTESRHPDTQLNYANEFDLNIKGWLLNEPNYRLGLMAGYQESRYSFTARGGSYIYSSEEGFRDDIGSFPNGERAIGYKQRFKMPYIGLTGSYRYEDFELGGTFKYSGWVESSDNDEHYDPGKRITYRSKVKDQNYYSVAVNAGYYVTPNAKVYVEGAWNRVTNKKGNTSLYDHNNNTSDYSKNGAGIENYNFITTAGLKYTF
B6: OmpT protease variant OmpT D97W (protein)
chain: STETLSFTPDNINADISLGTLSGKTKERVYLAEEGGRKVSQLDWKFNNAAIIKGAINWDLMPQISIGAAGWTTLGSRGGNMVDQDWMDSSNPGTWTWESRHPDTQLNYANEFDLNIKGWLLNEPNYRLGLMAGYQESRYSFTARGGSYIYSSEEGFRDDIGSFPNGERAIGYKQRFKMPYIGLTGSYRYEDFELGGTFKYSGWVESSDNDEHYDPGKRITYRSKVKDQNYYSVAVNAGYYVTPNAKVYVEGAWNRVTNKKGNTSLYDHNNNTSDYSKNGAGIENYNFITTAGLKYTF
B7: OmpT protease variant OmpT D97S (protein)
chain: STETLSFTPDNINADISLGTLSGKTKERVYLAEEGGRKVSQLDWKFNNAAIIKGAINWDLMPQISIGAAGWTTLGSRGGNMVDQDWMDSSNPGTWTSESRHPDTQLNYANEFDLNIKGWLLNEPNYRLGLMAGYQESRYSFTARGGSYIYSSEEGFRDDIGSFPNGERAIGYKQRFKMPYIGLTGSYRYEDFELGGTFKYSGWVESSDNDEHYDPGKRITYRSKVKDQNYYSVAVNAGYYVTPNAKVYVEGAWNRVTNKKGNTSLYDHNNNTSDYSKNGAGIENYNFITTAGLKYTF
B8: OmpT protease variant OmpT D97P (protein)
chain: STETLSFTPDNINADISLGTLSGKTKERVYLAEEGGRKVSQLDWKFNNAAIIKGAINWDLMPQISIGAAGWTTLGSRGGNMVDQDWMDSSNPGTWTPESRHPDTQLNYANEFDLNIKGWLLNEPNYRLGLMAGYQESRYSFTARGGSYIYSSEEGFRDDIGSFPNGERAIGYKQRFKMPYIGLTGSYRYEDFELGGTFKYSGWVESSDNDEHYDPGKRITYRSKVKDQNYYSVAVNAGYYVTPNAKVYVEGAWNRVTNKKGNTSLYDHNNNTSDYSKNGAGIENYNFITTAGLKYTF
B9: OmpT protease variant OmpT D97I (protein)
chain: STETLSFTPDNINADISLGTLSGKTKERVYLAEEGGRKVSQLDWKFNNAAIIKGAINWDLMPQISIGAAGWTTLGSRGGNMVDQDWMDSSNPGTWTIESRHPDTQLNYANEFDLNIKGWLLNEPNYRLGLMAGYQESRYSFTARGGSYIYSSEEGFRDDIGSFPNGERAIGYKQRFKMPYIGLTGSYRYEDFELGGTFKYSGWVESSDNDEHYDPGKRITYRSKVKDQNYYSVAVNAGYYVTPNAKVYVEGAWNRVTNKKGNTSLYDHNNNTSDYSKNGAGIENYNFITTAGLKYTF
B10: OmpT protease variant OmpT D97Q (protein)
chain: STETLSFTPDNINADISLGTLSGKTKERVYLAEEGGRKVSQLDWKFNNAAIIKGAINWDLMPQISIGAAGWTTLGSRGGNMVDQDWMDSSNPGTWTQESRHPDTQLNYANEFDLNIKGWLLNEPNYRLGLMAGYQESRYSFTARGGSYIYSSEEGFRDDIGSFPNGERAIGYKQRFKMPYIGLTGSYRYEDFELGGTFKYSGWVESSDNDEHYDPGKRITYRSKVKDQNYYSVAVNAGYYVTPNAKVYVEGAWNRVTNKKGNTSLYDHNNNTSDYSKNGAGIENYNFITTAGLKYTF
B11: OmpT protease variant OmpT D97K (protein)
chain: STETLSFTPDNINADISLGTLSGKTKERVYLAEEGGRKVSQLDWKFNNAAIIKGAINWDLMPQISIGAAGWTTLGSRGGNMVDQDWMDSSNPGTWTKESRHPDTQLNYANEFDLNIKGWLLNEPNYRLGLMAGYQESRYSFTARGGSYIYSSEEGFRDDIGSFPNGERAIGYKQRFKMPYIGLTGSYRYEDFELGGTFKYSGWVESSDNDEHYDPGKRITYRSKVKDQNYYSVAVNAGYYVTPNAKVYVEGAWNRVTNKKGNTSLYDHNNNTSDYSKNGAGIENYNFITTAGLKYTF
B12: OmpT protease variant OmpT D97G (protein)
chain: STETLSFTPDNINADISLGTLSGKTKERVYLAEEGGRKVSQLDWKFNNAAIIKGAINWDLMPQISIGAAGWTTLGSRGGNMVDQDWMDSSNPGTWTGESRHPDTQLNYANEFDLNIKGWLLNEPNYRLGLMAGYQESRYSFTARGGSYIYSSEEGFRDDIGSFPNGERAIGYKQRFKMPYIGLTGSYRYEDFELGGTFKYSGWVESSDNDEHYDPGKRITYRSKVKDQNYYSVAVNAGYYVTPNAKVYVEGAWNRVTNKKGNTSLYDHNNNTSDYSKNGAGIENYNFITTAGLKYTF
B13: OmpT protease variant OmpT D97C (protein)
chain: STETLSFTPDNINADISLGTLSGKTKERVYLAEEGGRKVSQLDWKFNNAAIIKGAINWDLMPQISIGAAGWTTLGSRGGNMVDQDWMDSSNPGTWTCESRHPDTQLNYANEFDLNIKGWLLNEPNYRLGLMAGYQESRYSFTARGGSYIYSSEEGFRDDIGSFPNGERAIGYKQRFKMPYIGLTGSYRYEDFELGGTFKYSGWVESSDNDEHYDPGKRITYRSKVKDQNYYSVAVNAGYYVTPNAKVYVEGAWNRVTNKKGNTSLYDHNNNTSDYSKNGAGIENYNFITTAGLKYTF
B14: OmpT protease variant OmpT D97N (protein)
chain: STETLSFTPDNINADISLGTLSGKTKERVYLAEEGGRKVSQLDWKFNNAAIIKGAINWDLMPQISIGAAGWTTLGSRGGNMVDQDWMDSSNPGTWTNESRHPDTQLNYANEFDLNIKGWLLNEPNYRLGLMAGYQESRYSFTARGGSYIYSSEEGFRDDIGSFPNGERAIGYKQRFKMPYIGLTGSYRYEDFELGGTFKYSGWVESSDNDEHYDPGKRITYRSKVKDQNYYSVAVNAGYYVTPNAKVYVEGAWNRVTNKKGNTSLYDHNNNTSDYSKNGAGIENYNFITTAGLKYTF
B15: OmpT protease variant OmpT D97E (protein)
chain: STETLSFTPDNINADISLGTLSGKTKERVYLAEEGGRKVSQLDWKFNNAAIIKGAINWDLMPQISIGAAGWTTLGSRGGNMVDQDWMDSSNPGTWTEESRHPDTQLNYANEFDLNIKGWLLNEPNYRLGLMAGYQESRYSFTARGGSYIYSSEEGFRDDIGSFPNGERAIGYKQRFKMPYIGLTGSYRYEDFELGGTFKYSGWVESSDNDEHYDPGKRITYRSKVKDQNYYSVAVNAGYYVTPNAKVYVEGAWNRVTNKKGNTSLYDHNNNTSDYSKNGAGIENYNFITTAGLKYTF
B16: OmpT protease variant OmpT D97H (protein)
chain: STETLSFTPDNINADISLGTLSGKTKERVYLAEEGGRKVSQLDWKFNNAAIIKGAINWDLMPQISIGAAGWTTLGSRGGNMVDQDWMDSSNPGTWTHESRHPDTQLNYANEFDLNIKGWLLNEPNYRLGLMAGYQESRYSFTARGGSYIYSSEEGFRDDIGSFPNGERAIGYKQRFKMPYIGLTGSYRYEDFELGGTFKYSGWVESSDNDEHYDPGKRITYRSKVKDQNYYSVAVNAGYYVTPNAKVYVEGAWNRVTNKKGNTSLYDHNNNTSDYSKNGAGIENYNFITTAGLKYTF
B17: OmpT protease variant OmpT D97M (protein)
chain: STETLSFTPDNINADISLGTLSGKTKERVYLAEEGGRKVSQLDWKFNNAAIIKGAINWDLMPQISIGAAGWTTLGSRGGNMVDQDWMDSSNPGTWTMESRHPDTQLNYANEFDLNIKGWLLNEPNYRLGLMAGYQESRYSFTARGGSYIYSSEEGFRDDIGSFPNGERAIGYKQRFKMPYIGLTGSYRYEDFELGGTFKYSGWVESSDNDEHYDPGKRITYRSKVKDQNYYSVAVNAGYYVTPNAKVYVEGAWNRVTNKKGNTSLYDHNNNTSDYSKNGAGIENYNFITTAGLKYTF
B18: OmpT protease variant OmpT D97A (protein)
chain: STETLSFTPDNINADISLGTLSGKTKERVYLAEEGGRKVSQLDWKFNNAAIIKGAINWDLMPQISIGAAGWTTLGSRGGNMVDQDWMDSSNPGTWTAESRHPDTQLNYANEFDLNIKGWLLNEPNYRLGLMAGYQESRYSFTARGGSYIYSSEEGFRDDIGSFPNGERAIGYKQRFKMPYIGLTGSYRYEDFELGGTFKYSGWVESSDNDEHYDPGKRITYRSKVKDQNYYSVAVNAGYYVTPNAKVYVEGAWNRVTNKKGNTSLYDHNNNTSDYSKNGAGIENYNFITTAGLKYTF

These proteins were tested against fusion protein PRV.
Chain of fusion protein PRV (chain, as listed by the source): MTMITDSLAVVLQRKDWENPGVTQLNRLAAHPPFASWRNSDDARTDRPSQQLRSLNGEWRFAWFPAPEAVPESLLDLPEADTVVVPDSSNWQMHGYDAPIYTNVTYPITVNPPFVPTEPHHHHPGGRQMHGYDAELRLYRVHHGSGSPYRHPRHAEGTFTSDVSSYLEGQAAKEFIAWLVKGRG

Q: With B1 as the protein, how does the relative cleavage efficiency read?
A: less than 3.0%

Q: With B2 as the protein, how does the relative cleavage efficiency read?
A: < 3%

Q: Which relative cleavage efficiency does the source give for B3 here?
A: less than 3.0%

Q: Which relative cleavage efficiency does the source give for B4 here?
A: < 3%

Q: With B5 as the protein, how does the relative cleavage efficiency read?
A: < 3%

Q: For B6, which relative cleavage efficiency is on record?
A: less than 3.0%

Q: How did the relative cleavage efficiency turn out when B7 was run?
A: < 3%

Q: How did the relative cleavage efficiency turn out when B8 was run?
A: less than 3.0%

Q: How did the relative cleavage efficiency turn out when B9 was run?
A: less than 3.0%

Q: With B10 as the protein, how does the relative cleavage efficiency read?
A: < 3%

Q: B11 was tested. Which relative cleavage efficiency did it give?
A: less than 3.0%

Q: B12 was tested. Which relative cleavage efficiency did it give?
A: less than 3.0%

Q: How did the relative cleavage efficiency turn out when B13 was run?
A: 3.2%

Q: For B14, which relative cleavage efficiency is on record?
A: < 3%

Q: B15 was tested. Which relative cleavage efficiency did it give?
A: 5%

Q: For B16, which relative cleavage efficiency is on record?
A: 7.8%

Q: B17 was tested. Which relative cleavage efficiency did it give?
A: 3%

Q: For B18, which relative cleavage efficiency is on record?
A: < 3%

Source: patent publication US20070077617
